How the values were obtained:
[1] = molecular target: T1, yeast-displayed mIL-2 (residues 1-149) (Mus musculus, UniProt P04351); test: flow cytometry on cells; yeast surface display: hIL-2 or mIL-2 displayed on yeast (Aga2 fusion); serial dilutions of recombinant F5111 antibody, 2 hours at room temperature in PBE (PBS, 0.1% BSA, 1 mM EDTA); detected with anti-human IgG Fc APC; first-order binding model; settings: one partner purified
T1 construct: mouse interleukin-2, residues 1-149; a 3C protease site lies between Aga2 and the cytokine; also called mouse IL-2; not shown: Aga2 (yeast agglutinin protein), N-terminal, kept
T1 sequence (P04351 21-169): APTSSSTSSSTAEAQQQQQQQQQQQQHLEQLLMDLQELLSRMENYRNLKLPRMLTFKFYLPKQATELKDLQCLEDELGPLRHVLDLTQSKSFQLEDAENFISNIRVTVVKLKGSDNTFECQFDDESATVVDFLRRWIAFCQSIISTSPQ

[2] = molecular target: T2, yeast-displayed hIL-2 (residues 1-133) (human, UniProt P60568); test: as above; settings: one partner purified
T2 construct: human interleukin-2, residues 1-133; a 3C protease site lies between Aga2 and the cytokine; not shown: Aga2 (yeast agglutinin protein), N-terminal, kept
T2 sequence (P60568 21-153): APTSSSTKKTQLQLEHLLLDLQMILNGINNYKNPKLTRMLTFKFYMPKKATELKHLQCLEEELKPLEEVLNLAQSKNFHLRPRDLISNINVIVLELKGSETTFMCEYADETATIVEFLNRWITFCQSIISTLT

[3] = molecular target: T3, Biotinylated human IL-2 (Homo sapiens, UniProt P60568, biotin on the biotin acceptor peptide (BirA ligase)); test: BLI; biotinylated hIL-2, hIL-2Rα or hIL-2Rβ immobilised on streptavidin biosensors; serial dilutions of analyte in PBSA (PBS pH 7.2, 0.1% BSA); 300 s association, 600 s dissociation; equilibrium titration, first-order fit; F5111 IC LN25 and LN35 as SEC peak P3, LN15 as majority peak; cytokine/antibody complexes pre-formed at 1:1 molar ratio, 60 minutes at 37°C; settings: both partners purified
T3 construct: human interleukin-2; limits not restated for this construct (hIL-2 is residues 1-133 in the other constructs); the hexahistidine tag follows the BAP; also called biotinylated hIL-2; hIL-2 (immobilised); source: HEK 293F (gWiz vector), purified (Ni-NTA, SEC), biotinylated with BirA
T3 sequence (P60568 21-153): as above

Row | binding result [1] | binding result [2] | binding result [3] | Binder
1 | no binding | binds | binds | F5111 antibody (antibody, V domains shown, human IgG1 constant heavy chain; human lambda constant chain; human IgG1 lambda; anti-hIL-2; also called F5111 Ab; F5111 human immunoglobulin G1 (IgG1) antibody; source: HEK 293F, transient co-transfection of HC and LC plasmids, purified (protein G, SEC); copies: 2 + 2) VH: QLQLQESGPGLVKPSQTLSLTCTVSGGSISSGGYYWSWIRQHPGKGLEWIGYIYYSGSTYYNPSLKSRVTISVDTSKNQFSLKLSSVTAADTAVYYCARTPTVTGDWFDPWGRGTLVTVSS VL: NFMLTQPHSVSESPGKTVTISCTRSSGSIASNYVQWYQQRPGSSPTTVIYEDNQRPSGVPDRFSGSIDSSSNSASLTISGLKTEDEADYYCQSYDSSNVVFGGGTKLTVL
2 |  |  | binds | F5111.2 Antibody (N297A) (antibody, V domains shown, as the VH of m21 (F5111.2; human IgG1 constant heavy chain with N297A in the Fc region; 297 is EU numbering); as the VL of m21 (F5111.2); human lambda constant chain; in all studies the F5111.2 antibody includes N297A; the isotype platform is stated for F5111 only; source: HEK 293F, transient co-transfection, purified (protein G, SEC); copies: 2 + 2) VH: QLQLQESGPGLVKPSQTLSLTCTVSGGSISSGGYYWSWIRQHPGKGLEWIGYIYKSGSAYYSPSLKSRVTISVDTSKNQFSLKLSSVTAADTAVYYCARTPTVTGDWFDPWGRGTLVTVSS VL: NFMLTQPHSVSESPGKTVTISCTRSSGSIASNYVQWYQQRPGSSPTTVIYEDNQRPSGVPDRFSGSIDSSSNSASLTISGLKTEDEADYYCQTYDSIDVYFGGGTKLTVL

From paper PMC9631798, “Engineered human cytokine/antibody fusion proteins expand regulatory T cells and confer autoimmune disease protection” (Cell reports, 2022)
